From the domain aggregation screens of Martell et al. (2025)

Experiment: soluble fraction after stress (log2 fold change); higher = more stays soluble; pooled small domains, quantitative proteomics
Details: stress: 50 degC
Procedure, shortened: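 The measure of aggregation propensity here is the base-two logarithm of the fold change in the soluble amount of each protein after stress. A higher value means more of that protein stays in solution. Stress was applied at 50°C to pooled libraries of small protein domains, read out by high-throughput quantitative proteomics.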

Sequence	soluble fraction (log2)
HMADLPQATALADVKGDVQMQGIQFGYDPEKIIIHDLNLHARPGSLVAIVGPTGAGKTTIINLLMRFYD	-0.313
HMGAVQFAEQKIHIGSRWIGKKISEFSAESDAFVILIKRGSEVVIPRGPTDIVENDVLVIHVPD	-2.56
HMLEEIIDVKRFLVENVRGVSEKTALAILSEFGDKTMDVLRNSPNELYRIKGMSGKRIEVIKDAIANATAS	-0.275
HMYPEDMMSLMRRALRLINHLESNRKDRHNSRQLELTESKIRRLARYYKGRGLIETEWAYKRDQLRLLV	-0.398
HMERTQSIEAAREQLGEVTKDNVFETETLGALAILKENEPGEYAKIKADLKGKINMNDLERAVKKAAADQR	≥ 0.62
HMNTVAKELATQATQAKKRAFLDAYAETGIIKRAAEIAGIERKSHYLWLEKDPEYVEAFKSAGEQ	0.301
HMDADRILHKTLKPRELEIYQLIKAYLEEHSQIANAKVQEISGLSEATTRRYLNIFVEFGLLKTS	-0.0476
HMKSIEVPNLINMTLRKAKIELIDNEFNLDTVIYEYNPNIREGRVSLQIPESGTILKSGSNISIHISKGIP	-1.53
HMTKSTLQRQKIIADLIESGNISSQNQLKGLLKKNSLLITQATLSRDLSELGAIKKRQKDGLLVYVLPK	-0.511
HMADASVTAYFKIAEDRLQGRLPDTFSEASLKARYQLTPAQLTAVLTRIAQEGWAERKPGYGWAFSSML	-1.4
HMDAISYTQFMEEAKQGRINKVEVQGRTLMVTPTDGKAYSLTSPGDLWMTTDLMKYGVNVYGAE	-0.00324
HMKAGAVFNEGDVLYPKIGGLKLMAAAGEGGKVVATLAKTDEMIYMGEEQSGFVKVESGSGSGWVKKILVA	0.366
HMPVRIYEISKKLGLENKEVLATAKSLGIAAAKVPSSSLDKITAEYLEEEILKSHPEVAARLK	0.329
HMKLTTRQTEIINIVKAEQPISGEKIAQNLGLSRATLRNDLSILTMTGLLDAKPKVGYFYTGQ	-0.447
HMSSKTKVEDLGLSTRTLNALIGGSIKTAGGLTRKSESDLLSLDGLGEKGITEIKEALENIGLSLK	0.215
HMDKLFNRQTLGGVELTQKQIEDLNAGKAIFVEGMQRKDGEVFSSYVKLDEATGRPSYTRYNPDSP	0.441
HMTQHDIVPLMLKMVDVLTQFVELDIPFLQQERQTRLAALNAMMGRADVSLAEKYRRIMEAYQVETEYG	-0.0938
HMEQFDFTILRELRKRAGLSIGEVSAESGVSAAVISKLERNRTRAELDTLYRLARVFGITAAELLNLAEA	-2.06
HMRLPQEVWEKIRAAYEAHGLSFSELAEMYGVNKSNISRRAKAEGWNQAETQRLITATVENE	0.267
HMVNSIQIHKKLRLDKRAGSDNWYARLTLPNGKRLVKTTKTEDIETAKEVALRLYYEVDARIQNKLPAT	-1.45
HMTQLEVDLFERLITISGVGPRLALAVLSGLEPPDLLRAIQDSDIVRLQGIPGVGKKTAERISLELKDKLS	-0.963
HMTEKEEERTEDLNYYRLNLISMLKSSYPEYLDDEEFISNRSQEAAEAFEDAVRSGSNYLDASAESNRTLY	-0.362
HMVMNYKKIGKKIADRRILLGITQEELAEKVDSSANYISNIETGIKSGSLIFYIKVANELKLSLDFLFSDE	-0.893

Sequence	soluble fraction (log2)
HMNNLVGKTKVLKSNTNIYAYKTMSGKFYSYLPNTRVRVLQDLGYINYIEVIATKRRGYVYENVY	-0.0937
HMEPDDLTVIKGIGPVAAKDLNEQGIITFAQLAKLSDKDVAKIDEHMPFSADQIKDWREQAKELAK	0.263
HMKDYKSSLQERVQAVGGGQLIYRVNREEGPDHSKTFYMDLFLGDRLIGTGSGRNKKQAEQQAAKEAIERG	0.0941
HMGATFITSSKDNAINIRQAAGTDSKVIETIKNGHILESSEKSGEWYKVTYYDSDIKKTFTGYIHNSQLK	0.159
HMKILNYQSLVGKKGITKSMLRPAGIVEIEGRRYDVVTRGEFIEPGKMITVDEVQGNRIIVQIERE	-0.165
HMKAQTVPQFVGMTMTEAEEKASELGITLIEGAVVDSVEPKDTILTQDVDEGTEITGKMEIMVTISS	-0.28
HMPAKIIKKSFVYNPIHRDTEYLAQFLQGEGQVSASGDKLVYYGTVEDISRIKSVLQSVDTPS	0.0363
HMNRYPIQTEVHAFNDDIIKEAINFEMSRGGQIFFVNNRIPQLYELENTIHRLVPDARVVIGHGQMP	-0.188
HMYVSGVPAITSIERVSTPGRRVYAGYTTVPKVIGGMGVSILTTSRGVMTDAEARRQKVGGELLAKV	-0.0341
HMTKGVQMFAEQLKRTRQSRHYSQAEIASKLGVTQQAIAKWETGVSTPSPTSISKLSDILGISTDVLLKGA	0.0763
HMGHRQRRARARNRSMLEDIPGLGPKRRQQLLRQFGGLPQLMRAGVAELSQVPGISDSLARKIHAELHPES	-1.77
HMSNEKVVKFAQELLVDEERSAISPALISAKIDQVLMFKPAWNEGLDRDAVVNELVRRFSIW	-0.841
HMSTFTPYLVKVTTSVLNIRKGAGTNYGTNGSIRDMGTYTIVAEADGQGASKWGKLKSGAGWISLDYTKK	-1.94
HMNSLGYSDFVVDVQNERVASVVIEGLIINGERRDGTKFRTVLPTIGDQRLMDDLINHNVKVLARE	0.236
HMDFITPYEIEQGQYEGAELYEDGKFEEAFSLSSIAAQRGMKTAQYLLGIMFLKGEYVDQSLAIGMAW	-0.272
HMAKRDEIEAELPRFVATITQELAASRDVLSMIEHYKQNSGPVFSAELDVLTADMRSGSYEAALTRFEARF	0.0338
HMGVDASVDSKLDLLSQVLDSDQVKEQLPEAVLEQLAQNLDRWRSLHEESELQDDDIAELNRLLGLFGLG	0.0425
HMPRPRIHSVVRGDTLYGISRQYGVAMSKLASLNGLKSPYRIMVGRSLRLPSAIEAERDRTAREVVQ	-1.45
HMKITKIWFTADHIFGRDEEGKEYSQSLLWYPKLSAASDEERSQYTFGYDGIHWRSLDEDISFESF	-3.98
HMGRLNMRRIRDVLRLKFGQGLSERQVAASLGLSKTSVGTYLHRARQAGLTWPLPQGLDDDGLELLLFP	-1.29
HMRNSFTVENTGERLDVFLTGQMPEFSRSHIQKLIASGQAWVNGVNRKGNFKLKPHDVVELEVPEPE	0.53
HMFKINNIIVSGLSEKSNLQTSEEIKNILFENIFFIKKDVLFKILEKNNLINSFEIKKIYPDTIEVKIKKT	0.153
HMAFDYETYQLTSREFSIIELVADGRSNREIAEALYLGEGTVRNYLSSILEKLELRDRTQLAVFFYQHL	-2.3

Sequence	soluble fraction (log2)
HMDNLKELDEILETYGKKKGYLITILQKAQDAYGYISIDIMNRISEFTGIKVAKIYGVATFYAQFRL	0.146
HMSPGAKIEVTGNTVNLRAGPGTNYDTRGQVKKGEQLPLLGEQGGWYRVQTSRGVAYLAGWLARVLT	0.0409
HMQSAEMTLDREGQPVQVRVELTGNEARITFLSDQEQTREALDAGMAQLRELLEQQGMVLAGVTV	-0.0108
HMNSNISYSEFLSQVEKGTINSVEITGNSIKGIYADGGEFITFSPGDPGLIDKLQRSDIEILATPPA	-0.104
HMAEMRYLDQIYEVNVPLPDLSLEDGDLLARWAVNFHQRYEELFSYRQSDQEIRLVTLRVTVLGELP	-0.653
HMIKITLGWVISVRRHDLGYTQHKMARAVGISDLTVSRIESDDGITPDNNTLRKIAEYLKIDYNSLLTLK	-1.73
HMSSTAIQAMIRRLIDGEDPRKPLSDARLAETLKASGVPVARRTVAKYRESMSIPSSQDRLRI	-0.156
HMGGLSAEQKNGIQSVLKNFDPKNLTSADAKSITSEFKKLGVQPGKDLETTMAASGFDAKEVGRLAF	0.0781
HMDKELILLWDRVKSKVWQMDIQDSQVANWFQRNYHLTVRLRDFDPPVPPDKFTAEQLASFIKDIERHT	-0.597
HMGPPAVGAKLQVLRQARKLSLDELSRRAGVSKSMLSQVERNLANPTVAVLWRLATALGVGLADFLSP	-1.39
HMPKHDWDAFAGAIARRVHDHGMPVSQGELVRDMMDWFAGRKDFPPPDERTVRRKVSAIWRELNG	-1.02
HMLPSMENWLGELSFWQTPWWERRDFSTFDNIAQSKEELDEFMSRDDNGAILERMQDPINTIEAE	-0.46
HMEDPLGDLIGRIAAATGRPVQDIVAEVHRVVTDHFDGNLRVEAAAVILARKYGVAFEDKLSALQRSV	0.00767
HMTDSQLVEAENHVALRQAMAHLGPRERELIGLYYFEEQSQTQIAARFGVSQMQVSRWLTSAVGRIRGQMA	-0.00256
HMDLSPEQAELAAIRGELGIKIDDYALALNIPRDRLTSYLYGRANVPAEVLISARELRYASSA	0.00303
HMANADVVLVDLDKEYTVDAAKFHSVVKHSPFNGFAVKGAPVLTIVRGTVVAENGEVVGQPGHSKMVRP	-0.0579
HMTEFFNMQDMFYFKLTGDVTSKERRQSLGKILGIGYGNAAQMVSRLNNYGITKEEFTNAINEIEKQMEAG	-0.775
HMNTVSVGNLGLSVRAVNALKQAGIDTYDKLQELSWEELLLIPKLGQVTAAEIYRFITSYKKG	-0.552
HMNSQSGKGGVGYILETKYGLNLPPKMREAMGYAAKGVSDHLHKELHPDEIFDLFKKTFENVGQPYS	-0.0272
HMSQYVPDPVLNAALVGYLDFRKQAGKPMTDYSIRLLLVDLAKLSGNPQEQAAILDQSTKNNWIGVYALG	-2.87
HMNENFPYRLKEMVVVQSRTWPGINKPGGVGQVMKINPEAGTVNVKYVLGGSEKNIELKYVTSNDLNSK	-0.536
HMYATQLLQLEEMGFFDRAENIRALRATNGNVNAAVERL	0.0407
HMVSTDPVHLFNLGTANRRAGRASEAITSYRKFMEAAPQHPQVPEARAYIHDMEVLLQERQKSEQAASQLS	0.0843
